Test results from patent publication US12534501B2, “Targeting deregulated Wnt signaling in cancer using stabilized alpha-helices of BCL-9” (Dana-Farber Cancer Institute, Inc., priority 2011, dated 2026).

Experiments:
MM1S cells = assay: Cellular uptake of FITC-labelled peptides; type: cell-based; settings: FITC derivatives
Method: (§1) For fluorescence microscopy evaluation, cells were prepared using a cytocentrifuge (Thermo Shandon) and fixed as previously described (Sukhdeo, K. et al. Proc Natl Acad Sci USA 104, 7516-21 (2007); Mani, M. et al. Cancer Res 69, 7577-86 (2009)). Anti-β-catenin and rhodamine-conjugated secondary antibodies (5 μg/ml; Southern Biotechnology) were employed. Images were obtained using a BioRad Radiance 2000 laser scanning confocal microscope. Cell permeability of SAH-BCL9B and SAH-BCL9B(R359E) were determined by fluorescence microscopy of cells treated with FITC-derivatives of the above described stapled peptides and also by blotting/fluorescence scan, performed as previously described (Pitter, K. et al Methods Enzymol, 446, (2008), 387-408; Walensky, L. D. et al. Science 305, 1466-70 (2004). See results in FIG. 1E, FIG. 7.

Colo320 cells = assay: Cellular uptake of FITC-labelled peptides; type: cell-based; settings: FITC derivatives
Method: as §1

β-catenin = target: T1, β-catenin (Homo sapiens, UniProt P35222); assay: Anti-FITC / anti-β-catenin co-immunoprecipitation from lysates of peptide-treated cells; type: cell-based; settings: FITC and β-catenin immunoprecipitation, in situ
T1 construct: endogenous in cells; host or cells: Colo320
T1 sequence (P35222 1-781): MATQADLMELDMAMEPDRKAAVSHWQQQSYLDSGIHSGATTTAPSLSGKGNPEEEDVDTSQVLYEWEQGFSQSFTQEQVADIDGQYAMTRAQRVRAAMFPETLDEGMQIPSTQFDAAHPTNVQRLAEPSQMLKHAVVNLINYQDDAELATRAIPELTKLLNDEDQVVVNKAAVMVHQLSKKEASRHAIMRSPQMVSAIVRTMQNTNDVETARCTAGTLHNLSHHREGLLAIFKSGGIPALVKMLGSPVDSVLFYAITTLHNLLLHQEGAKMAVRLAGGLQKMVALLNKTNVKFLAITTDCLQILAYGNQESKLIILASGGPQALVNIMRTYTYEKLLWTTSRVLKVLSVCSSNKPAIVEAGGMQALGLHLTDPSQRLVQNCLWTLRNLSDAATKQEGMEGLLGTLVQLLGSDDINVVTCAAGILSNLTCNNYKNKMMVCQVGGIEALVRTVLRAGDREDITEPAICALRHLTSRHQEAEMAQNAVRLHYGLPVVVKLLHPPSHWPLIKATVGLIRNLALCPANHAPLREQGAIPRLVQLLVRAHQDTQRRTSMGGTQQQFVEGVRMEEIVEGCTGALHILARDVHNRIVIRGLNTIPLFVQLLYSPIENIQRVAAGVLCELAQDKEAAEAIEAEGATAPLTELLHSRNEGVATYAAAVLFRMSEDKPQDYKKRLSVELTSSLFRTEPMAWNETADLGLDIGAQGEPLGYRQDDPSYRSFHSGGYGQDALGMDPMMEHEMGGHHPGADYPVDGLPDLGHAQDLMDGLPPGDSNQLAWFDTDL
Description: (§2) Western blotting, performed as described (Sukhdeo, K. et al. Proc Natl Acad Sci USA 104, 7516-21 (2007)), employed the following primary antibodies: BCL9 (6109) (Mani, M. et al. Cancer Res 69, 7577-86 (2009)), BCL9 (ab37305, Abcam), B9L (AF4967, R&D Systems), β-catenin (CAT5-H10, Zymed), FITC (ab19224, Abcam), Actin-HRP (C-11, Santa Cruz), Caspase3 (#9662, Cell Signaling), IκBα (#9242, Cell signaling), PARP (#9542, Cell Signaling), E-cadherin (#3195, Cell Signaling), and Lamin B (sc-6217, Santa Cruz). Horseradish peroxidase conjugated secondary antibodies were purchased from Santa Cruz and SouthernBiotech. Co-immunoprecipitation was performed as described (Walensky, L. D. et al. Science 305, 1466-70 (2004)). Briefly, cells were lysed in 50 mM Tris, 150 mM NaCl, and 1% CHAPS buffer containing protease and phosphatase inhibitors. Lysates were precleared with Protein A/G PLUS-agarose beads (Santa Cruz Biotechnologies) for 3 hours followed by overnight incubation at 4° C. with the respective antibodies. Agarose A/G beads were then added for 4 h, pelleted, and washed as described (Walensky, L. D. et al. Science 305, 1466-70 (2004)). See results in FIG. 1D, FIG. 1H, FIG. 2A, FIG. 8.

[1] = target: T2, β-catenin/E-cadherin interaction (Homo sapiens, UniProt P35222); assay: Anti-β-catenin co-immunoprecipitation of E-cadherin from MCF7 cell lysates; type: cell-based; settings: selectivity
T2 construct: anti-β-catenin co-immunoprecipitation of E-cadherin from MCF7 cell lysates; endogenous in cells; host or cells: MCF7
T2 sequence (P35222 2-781 limits assumed): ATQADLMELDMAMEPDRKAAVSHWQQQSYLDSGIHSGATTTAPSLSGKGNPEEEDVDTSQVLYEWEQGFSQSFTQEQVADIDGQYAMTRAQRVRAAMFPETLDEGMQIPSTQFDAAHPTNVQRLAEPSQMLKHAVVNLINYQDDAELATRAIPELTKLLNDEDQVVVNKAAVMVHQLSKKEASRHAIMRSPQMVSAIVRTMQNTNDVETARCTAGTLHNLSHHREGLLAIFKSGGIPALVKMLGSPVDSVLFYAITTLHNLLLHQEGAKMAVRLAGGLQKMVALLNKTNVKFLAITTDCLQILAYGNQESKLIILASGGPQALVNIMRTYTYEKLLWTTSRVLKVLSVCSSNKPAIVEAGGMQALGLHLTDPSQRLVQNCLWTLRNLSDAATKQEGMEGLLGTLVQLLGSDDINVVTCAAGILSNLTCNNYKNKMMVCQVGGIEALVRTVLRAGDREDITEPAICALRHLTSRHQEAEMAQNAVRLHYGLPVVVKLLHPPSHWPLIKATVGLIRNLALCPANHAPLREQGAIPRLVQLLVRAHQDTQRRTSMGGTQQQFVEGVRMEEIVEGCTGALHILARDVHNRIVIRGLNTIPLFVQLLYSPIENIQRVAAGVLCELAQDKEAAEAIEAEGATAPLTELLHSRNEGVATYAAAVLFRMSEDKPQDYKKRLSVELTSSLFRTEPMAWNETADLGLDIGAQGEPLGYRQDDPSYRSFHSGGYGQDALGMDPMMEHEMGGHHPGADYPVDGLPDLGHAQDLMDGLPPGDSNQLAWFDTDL
Description: as §2

IκBα and actin = assay: Anti-FITC pulldown from MCF7 lysates (unrelated proteins); type: cell-based; settings: MCF7 cells, selectivity
Description: as §2

[2] = tested on: β-catenin/TCF interaction; settings: Lepourcelet et al. 2004; cited from earlier work
[3] = Sukhdeo et al. 2007; cited from earlier work
colon cancer cells = settings: Lepourcelet et al. 2004; cited from earlier work

FITC-SAH-BCL9B(R359E): FITC derivative of SAH-BCL9B(R359E)
cellular uptake (MM1S cells): equivalent cellular uptake
cellular uptake (Colo320 cells): equivalent cellular uptake
temperature-dependent uptake (Colo320 cells): equivalent temperature-dependent uptake

FITC-SAH-BCL9B: FITC derivative (via β-Ala at the amino terminus) of SAH-BCL9B
cellular uptake (MM1S cells): equivalent cellular uptake
cellular uptake (Colo320 cells): equivalent cellular uptake
temperature-dependent uptake (Colo320 cells): equivalent temperature-dependent uptake
β-catenin interaction by co-immunoprecipitation (β-catenin): dose-responsively co-immunoprecipitated with β-catenin
effect on β-catenin's interaction with E-cadherin [1]: no effect
co-immunoprecipitation of unrelated proteins (IκBα, actin) (IκBα and actin): no co-immunoprecipitation of unrelated proteins

PKF115-584
Wnt-specific transcriptional activity [2]: blocked Wnt-specific transcriptional activity
toxicity in treated mice [3]: severe bone marrow hypoplasia, anemia, and generalized wasting
growth of colon cancer cells (colon cancer cells): reduced the growth of colon cancer cells

SAH-BCL9B(H358D): SEQ ID NO: 6: LSQEQLEDRERSLXTLRXIQRBLF; reverse polarity point mutant of SAH-BCL9B
cellular uptake (Colo320 cells): similar
β-catenin interaction by co-immunoprecipitation (β-catenin): impaired β-catenin interaction
